Assay results as given in IntAct's records for PubMed 29263825.

B1: Cohesin subunit SA-2 (Homo sapiens), Q8N3U4 (parent)
chain: MIAAPEIPTDFNLLQESETHFSSDTDFEDIEGKNQKQGKGKTCKKGKKGPAEKGKGGNGGGKPPSGPNRMNGHHQQNGVENMMLFEVVKMGKSAMQSVVDDWIESYKHDRDIALLDLINFFIQCSGCKGVVTAEMFRHMQNSEIIRKMTEEFDEDSGDYPLTMAGPQWKKFKSSFCEFIGVLVRQCQYSIIYDEYMMDTVISLLTGLSDSQVRAFRHTSTLAAMKLMTALVNVALNLSINMDNTQRQYEAERNKMIGKRANERLELLLQKRKELQENQDEIENMMNAIFKGVFVHRYRDAIAEIRAICIEEIGIWMKMYSDAFLNDSYLKYVGWTMHDKQGEVRLKCLTALQGLYYNKELNSKLELFTSRFKDRIVSMTLDKEYDVAVQAIKLLTLVLQSSEEVLTAEDCENVYHLVYSAHRPVAVAAGEFLYKKLFSRRDPEEDGMMKRRGRQGPNANLVKTLVFFFLESELHEHAAYLVDSMWDCATELLKDWECMNSLLLEEPLSGEEALTDRQESALIEIMLCTIRQAAECHPPVGRGTGKRVLTAKEKKTQLDDRTKITELFAVALPQLLAKYSVDAEKVTNLLQLPQYFDLEIYTTGRLEKHLDALLRQIRNIVEKHTDTDVLEACSKTYHALCNEEFTIFNRVDISRSQLIDELADKFNRLLEDFLQEGEEPDEDDAYQVLSTLKRITAFHNAHDLSKWDLFACNYKLLKTGIENGDMPEQIVIHALQCTHYVILWQLAKITESSSTKEDLLRLKKQMRVFCQICQHYLTNVNTTVKEQAFTILCDILMIFSHQIMSGGRDMLEPLVYTPDSSLQSELLSFILDHVFIEQDDDNNSADGQQEDEASKIEALHKRRNLLAAFCKLIVYTVVEMNTAADIFKQYMKYYNDYGDIIKETMSKTRQIDKIQCAKTLILSLQQLFNEMIQENGYNFDRSSSTFSGIKELARRFALTFGLDQLKTREAIAMLHKDGIEFAFKEPNPQGESHPPLNLAFLDILSEFSSKLLRQDKRTVYVYLEKFMTFQMSLRREDVWLPLMSYRNSLLAGGDDDTMSVISGISSRGSTVRSKKSKPSTGKRKVVEGMQLSLTEESSSSDSMWLSREQTLHTPVMMQTPQLTSTIMREPKRLRPEDSFMSVYPMQTEHHQTPLDYNRRGTSLMEDDEEPIVEDVMMSSEGRIEDLNEGMDFDTMDIDLPPSKNRRERTELKPDFFDPASIMDESVLGVSMF
B2: Cohesin subunit SA-2 (Homo sapiens), Q8N3U4 (parent)
chain: B1 chain
partner: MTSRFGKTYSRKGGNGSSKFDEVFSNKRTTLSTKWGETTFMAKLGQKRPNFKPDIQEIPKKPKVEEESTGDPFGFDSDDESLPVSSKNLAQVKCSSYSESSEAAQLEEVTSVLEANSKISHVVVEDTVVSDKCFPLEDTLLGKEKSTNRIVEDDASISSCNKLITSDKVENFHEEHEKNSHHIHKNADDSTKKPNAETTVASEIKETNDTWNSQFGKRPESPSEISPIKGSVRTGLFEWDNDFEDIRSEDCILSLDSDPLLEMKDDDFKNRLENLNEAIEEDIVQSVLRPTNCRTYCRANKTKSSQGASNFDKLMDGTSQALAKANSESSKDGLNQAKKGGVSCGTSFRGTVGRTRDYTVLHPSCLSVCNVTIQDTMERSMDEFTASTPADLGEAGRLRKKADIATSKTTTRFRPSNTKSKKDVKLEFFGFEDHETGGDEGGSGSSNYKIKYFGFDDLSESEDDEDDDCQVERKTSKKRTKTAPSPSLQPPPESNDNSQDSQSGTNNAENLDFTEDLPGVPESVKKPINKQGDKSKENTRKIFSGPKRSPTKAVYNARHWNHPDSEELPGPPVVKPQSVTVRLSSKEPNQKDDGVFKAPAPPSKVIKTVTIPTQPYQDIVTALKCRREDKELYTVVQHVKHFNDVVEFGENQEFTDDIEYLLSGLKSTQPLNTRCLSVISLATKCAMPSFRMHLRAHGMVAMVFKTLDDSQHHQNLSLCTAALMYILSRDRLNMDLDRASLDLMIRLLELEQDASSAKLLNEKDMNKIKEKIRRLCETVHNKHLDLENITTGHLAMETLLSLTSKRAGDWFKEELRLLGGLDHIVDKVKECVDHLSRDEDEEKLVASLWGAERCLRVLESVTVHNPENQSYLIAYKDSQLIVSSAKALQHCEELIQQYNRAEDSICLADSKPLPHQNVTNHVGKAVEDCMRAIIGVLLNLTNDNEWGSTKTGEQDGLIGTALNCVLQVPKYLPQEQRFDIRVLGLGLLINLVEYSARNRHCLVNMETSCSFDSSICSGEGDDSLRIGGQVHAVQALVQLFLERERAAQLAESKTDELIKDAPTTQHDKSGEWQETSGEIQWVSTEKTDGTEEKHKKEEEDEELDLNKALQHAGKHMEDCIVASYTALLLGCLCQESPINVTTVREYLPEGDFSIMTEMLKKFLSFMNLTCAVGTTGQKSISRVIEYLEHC
B3: Cohesin subunit SA-2 (Homo sapiens), Q8N3U4 (parent)
chain: B1 chain
partner: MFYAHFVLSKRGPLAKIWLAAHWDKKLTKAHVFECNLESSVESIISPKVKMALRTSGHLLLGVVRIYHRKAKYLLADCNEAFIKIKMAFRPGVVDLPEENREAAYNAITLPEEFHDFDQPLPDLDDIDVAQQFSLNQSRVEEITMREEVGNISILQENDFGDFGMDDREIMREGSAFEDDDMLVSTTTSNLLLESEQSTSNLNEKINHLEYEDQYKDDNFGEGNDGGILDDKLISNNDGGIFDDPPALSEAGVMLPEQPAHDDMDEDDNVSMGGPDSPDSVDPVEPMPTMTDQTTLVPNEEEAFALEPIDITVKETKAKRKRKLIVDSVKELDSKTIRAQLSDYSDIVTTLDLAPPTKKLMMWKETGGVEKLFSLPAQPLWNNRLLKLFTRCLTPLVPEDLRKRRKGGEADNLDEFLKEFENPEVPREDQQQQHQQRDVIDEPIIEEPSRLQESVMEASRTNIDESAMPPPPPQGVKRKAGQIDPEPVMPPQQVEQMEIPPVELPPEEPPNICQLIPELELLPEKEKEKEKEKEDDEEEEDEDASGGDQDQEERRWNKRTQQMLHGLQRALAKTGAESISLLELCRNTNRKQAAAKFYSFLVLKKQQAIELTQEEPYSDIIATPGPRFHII

Variants of: B1
Conditions: with sgo1_human SGO1, Q5FBB7
Sequence of sgo1_human SGO1, Q5FBB7 (Q5FBB7 whole entry): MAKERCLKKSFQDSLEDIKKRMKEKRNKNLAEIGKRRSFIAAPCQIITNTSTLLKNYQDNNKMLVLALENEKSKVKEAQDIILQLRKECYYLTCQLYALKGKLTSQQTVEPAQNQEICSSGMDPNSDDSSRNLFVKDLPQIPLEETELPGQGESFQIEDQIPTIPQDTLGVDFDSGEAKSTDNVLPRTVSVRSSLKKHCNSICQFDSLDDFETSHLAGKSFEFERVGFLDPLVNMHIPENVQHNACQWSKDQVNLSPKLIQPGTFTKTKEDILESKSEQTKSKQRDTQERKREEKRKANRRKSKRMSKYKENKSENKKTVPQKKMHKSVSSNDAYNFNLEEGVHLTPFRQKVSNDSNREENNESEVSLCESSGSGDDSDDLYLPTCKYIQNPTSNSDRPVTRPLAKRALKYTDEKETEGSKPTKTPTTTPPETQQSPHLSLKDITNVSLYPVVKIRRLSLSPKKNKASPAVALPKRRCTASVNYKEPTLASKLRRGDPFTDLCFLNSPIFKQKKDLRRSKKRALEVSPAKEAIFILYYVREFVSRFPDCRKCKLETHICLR

effect of a mutation on the interaction | Variant
decreasing interaction | S327N
disrupting interaction | K330E

Variants of: B2
Conditions: with wapl_human WAPL

effect of a mutation on the interaction | Variant
decreasing interaction | K330E
with no effect | S327N

Variants of: B3
Conditions: with rad21_human RAD21, O60216

effect of a mutation on the interaction | Variant
with no effect | S327N
